Common to all, as to details: both partners purified
In assay [1] the target is T1, IsdH NEAT3 (Staphylococcus aureus (Mu50 for the …, UniProt Q931P4)).
T1 construct: also called NEAT3 domain (no linker)
The experiment in a line: SPR. (Surface plasmon resonance follows binding to a sensor surface in real time, without labels.)

The target in assay [2] is T1, IsdH NEAT3. The experiment in a line: SPR. This is another data set of the same source.
The target of assay [3] is T2, IsdH linker-NEAT3 (Staphylococcus aureus Mu50, UniProt Q931P4). Briefly: SPR.
In assay [4] the target is T3, IsdB linker-NEAT2 (Staphylococcus aureus Mu50 (by deposit …)). The experiment in a line: SPR.
Assay [5] concerns the target T3, IsdB linker-NEAT2. Briefly: ITC. (Isothermal titration calorimetry measures the heat released or taken up as one component is titrated into another.)
Assay [6] has as its target T1, IsdH NEAT3. Briefly: ITC.
Assay [7] addresses T2, IsdH linker-NEAT3. Briefly: ITC.
Assay [8] concerns the target T2, IsdH linker-NEAT3. Briefly: SPR. The source holds these as a separate data set.
The target of assay [9] is T2, IsdH linker-NEAT3. Briefly: ITC. The source holds these as a separate data set.
The target in assay [10] is T2, IsdH linker-NEAT3. The experiment in a line: SPR. The source holds these as a separate data set.

B1: VHH6 (VHH)
VHH: ELQLVESGGGLVQPGGSLSLSCEVSGFSFDDVDNFIIAWFRQAPGKEREGVSFLRKYDMSTYYAESVKGRFTISSDNARDTVYLQMTNLKPEDTAVYYCALDREGFVFEQGMDFWGKGTQVTVSS
notes: also called WT VHH6; WT; source: E. coli BL21(DE3), pRA2 vector with PelB signal peptide, purified (Ni-NTA, SEC)
Turning to B1, the Kd with IsdH NEAT3 [1] was found to be 638 nM; in the assay with IsdH NEAT3 [2], 637 nM; with IsdH linker-NEAT3 [3], 0.53 nM; with IsdB linker-NEAT2 [4], 0.25 nM. Also, the koff in the assay with IsdH NEAT3 [2] is 0.0235 s⁻¹; with IsdH linker-NEAT3 [3], 4.2e-05 s⁻¹; with IsdB linker-NEAT2 [4], 4e-05 s⁻¹. In addition, the kon came out at 37000 M⁻¹ s⁻¹ with IsdH NEAT3 [2], 81000 M⁻¹ s⁻¹ with IsdH linker-NEAT3 [3] and 160000 M⁻¹ s⁻¹ with IsdB linker-NEAT2 [4]. Besides, the dH in the assay with IsdB linker-NEAT2 [5] was -24.2 kcal/mol; with IsdH NEAT3 [6], -11.9 kcal/mol; with IsdH linker-NEAT3 [7], -17.1 kcal/mol. Besides, the “stoichiometry N” value was 0.8 mol:mol with IsdB linker-NEAT2 [5], 0.9 mol:mol in the assay with IsdH NEAT3 [6] and 1.1 mol:mol with IsdH linker-NEAT3 [7].

B2: VHH6 Y57A (VHH)
VHH: ELQLVESGGGLVQPGGSLSLSCEVSGFSFDDVDNFIIAWFRQAPGKEREGVSFLRKADMSTYYAESVKGRFTISSDNARDTVYLQMTNLKPEDTAVYYCALDREGFVFEQGMDFWGKGTQVTVSS
notes: source: E. coli BL21(DE3), purified as the WT (Ni-NTA, SEC)
Consider B2, for which, in the assay with IsdH linker-NEAT3 [8], the koff stood at 144 s⁻¹. In the assay with IsdH linker-NEAT3 [9], the dH was -9.7 kcal/mol and the “stoichiometry N” value is 1.03 mol:mol. In the assay with IsdH linker-NEAT3 [10], the Kd was 114 nM, the koff worked out at 0.0144 s⁻¹ and the kon turned out to be 126000 M⁻¹ s⁻¹.

B3: VHH6 E104A (VHH)
VHH: ELQLVESGGGLVQPGGSLSLSCEVSGFSFDDVDNFIIAWFRQAPGKEREGVSFLRKYDMSTYYAESVKGRFTISSDNARDTVYLQMTNLKPEDTAVYYCALDRAGFVFEQGMDFWGKGTQVTVSS
notes: as for B2
With B3, in the assay with IsdH linker-NEAT3 [9], the dH is -13.6 kcal/mol and the “stoichiometry N” value is 0.99 mol:mol. In the assay with IsdH linker-NEAT3 [10], this molecule returned a Kd of 6.4 nM, a koff of 0.00142 s⁻¹ and a kon of 151000 M⁻¹ s⁻¹.

B4: VHH6 D33A (VHH)
VHH: ELQLVESGGGLVQPGGSLSLSCEVSGFSFDDVANFIIAWFRQAPGKEREGVSFLRKYDMSTYYAESVKGRFTISSDNARDTVYLQMTNLKPEDTAVYYCALDREGFVFEQGMDFWGKGTQVTVSS
notes: as for B2
For the molecule B4, in the assay with IsdH linker-NEAT3 [9], the dH was -14.7 kcal/mol and the “stoichiometry N” value was 1.01 mol:mol. For the same molecule, in the assay with IsdH linker-NEAT3 [10], the Kd came to 2.08 nM, the koff was determined as 0.00013 s⁻¹ and the on-rate (kon) was 62000 M⁻¹ s⁻¹.

B5: VHH6 F106A (VHH)
VHH: ELQLVESGGGLVQPGGSLSLSCEVSGFSFDDVDNFIIAWFRQAPGKEREGVSFLRKYDMSTYYAESVKGRFTISSDNARDTVYLQMTNLKPEDTAVYYCALDREGAVFEQGMDFWGKGTQVTVSS
notes: as for B2
As to B5, in the assay with IsdH linker-NEAT3 [9], the dH was -16.6 kcal/mol and the “stoichiometry N” value is 1.01 mol:mol. In addition, in the assay with IsdH linker-NEAT3 [10], the affinity, expressed as Kd, was 3.1 nM; the koff stood at 0.00031 s⁻¹; the kon was 99000 M⁻¹ s⁻¹.

B6: VHH6 V107A (VHH)
VHH: ELQLVESGGGLVQPGGSLSLSCEVSGFSFDDVDNFIIAWFRQAPGKEREGVSFLRKYDMSTYYAESVKGRFTISSDNARDTVYLQMTNLKPEDTAVYYCALDREGFAFEQGMDFWGKGTQVTVSS
notes: as for B2
On to B6, for which, in the assay with IsdH linker-NEAT3 [9], the dH is -15.9 kcal/mol and the “stoichiometry N” value is 0.96 mol:mol. In addition, in the assay with IsdH linker-NEAT3 [10], the dissociation constant (Kd) is 9.7 nM, the koff is 0.00105 s⁻¹ and the kon came to 109000 M⁻¹ s⁻¹.

B7: VHH6 Y62A (VHH)
VHH: ELQLVESGGGLVQPGGSLSLSCEVSGFSFDDVDNFIIAWFRQAPGKEREGVSFLRKYDMSTAYAESVKGRFTISSDNARDTVYLQMTNLKPEDTAVYYCALDREGFVFEQGMDFWGKGTQVTVSS
notes: as for B2
As to B7, in the assay with IsdH linker-NEAT3 [9], the dH was -11.1 kcal/mol and the “stoichiometry N” value was 0.93 mol:mol. For the same molecule, in the assay with IsdH linker-NEAT3 [10], the Kd was found to be 45.4 nM, the koff was found to be 0.00207 s⁻¹ and the kon was 46000 M⁻¹ s⁻¹.

B8: VHH35 (VHH)
VHH: QLQLVESGGGLVQPGGSLSLSCEVSGFSFDDVDNFIIAWFRQAPGKEREGVSFLRKYDMSTYYAESVKGRFTISSDNARDTVYLQMTNLKPEDTAVYYCALDREGFVFEQGMDFWGKGTQVTVSS
notes: also called VHH number 35; hit clone 35; source: E. coli BL21(DE3), pRA2 vector with PelB signal peptide, purified (Ni-NTA, SEC)
As for B8, in the assay with IsdH NEAT3 [2], the Kd was found to be 237 nM, the koff is 0.00918 s⁻¹ and the on-rate (kon) is 39000 M⁻¹ s⁻¹. Further, in the assay with IsdH linker-NEAT3 [3], the affinity, expressed as Kd, was 0.53 nM; the koff came out at 3.5e-05 s⁻¹; the kon was 66000 M⁻¹ s⁻¹. For the same molecule, in the assay with IsdH NEAT3 [6], the dH is -17 kcal/mol and the “stoichiometry N” value was 1.02 mol:mol. In the assay with IsdH linker-NEAT3 [7], the dH was -16 kcal/mol and the “stoichiometry N” value was 0.98 mol:mol.

B9: VHH6 R55A (VHH)
VHH: ELQLVESGGGLVQPGGSLSLSCEVSGFSFDDVDNFIIAWFRQAPGKEREGVSFLAKYDMSTYYAESVKGRFTISSDNARDTVYLQMTNLKPEDTAVYYCALDREGFVFEQGMDFWGKGTQVTVSS
notes: as for B2
In the case of B9, in the assay with IsdH linker-NEAT3 [9], the dH was -15.9 kcal/mol and the “stoichiometry N” value was 0.94 mol:mol. In the assay with IsdH linker-NEAT3 [10], this molecule returned a dissociation constant (Kd) of 25.4 nM, a koff of 0.00855 s⁻¹ and a kon of 284000 M⁻¹ s⁻¹.

B10: VHH6 F108A (VHH)
VHH: ELQLVESGGGLVQPGGSLSLSCEVSGFSFDDVDNFIIAWFRQAPGKEREGVSFLRKYDMSTYYAESVKGRFTISSDNARDTVYLQMTNLKPEDTAVYYCALDREGFVAEQGMDFWGKGTQVTVSS
notes: as for B2
Take B10: in the assay with IsdH linker-NEAT3 [9], the dH is -19.3 kcal/mol and the “stoichiometry N” value was 0.97 mol:mol. In the assay with IsdH linker-NEAT3 [10], the Kd is 2.6 nM, the koff is 0.00049 s⁻¹ and the kon came out at 189000 M⁻¹ s⁻¹.

Broadly, the Kd is the equilibrium constant for the complex coming apart. As a reminder, the koff is a measure of how fast the partners let go of each other. Read a low koff as slow dissociation. What is called kon is a measure of how fast the partners come together.

The record behind these values is publication PMC10466926 (The Journal of Biological Chemistry, 2023).
